# T1: IL10Rα/IL2Rγ receptor (human, UniProt Q13651 22-578; P31785 23-369)
# T1 sequence (looked up) 1: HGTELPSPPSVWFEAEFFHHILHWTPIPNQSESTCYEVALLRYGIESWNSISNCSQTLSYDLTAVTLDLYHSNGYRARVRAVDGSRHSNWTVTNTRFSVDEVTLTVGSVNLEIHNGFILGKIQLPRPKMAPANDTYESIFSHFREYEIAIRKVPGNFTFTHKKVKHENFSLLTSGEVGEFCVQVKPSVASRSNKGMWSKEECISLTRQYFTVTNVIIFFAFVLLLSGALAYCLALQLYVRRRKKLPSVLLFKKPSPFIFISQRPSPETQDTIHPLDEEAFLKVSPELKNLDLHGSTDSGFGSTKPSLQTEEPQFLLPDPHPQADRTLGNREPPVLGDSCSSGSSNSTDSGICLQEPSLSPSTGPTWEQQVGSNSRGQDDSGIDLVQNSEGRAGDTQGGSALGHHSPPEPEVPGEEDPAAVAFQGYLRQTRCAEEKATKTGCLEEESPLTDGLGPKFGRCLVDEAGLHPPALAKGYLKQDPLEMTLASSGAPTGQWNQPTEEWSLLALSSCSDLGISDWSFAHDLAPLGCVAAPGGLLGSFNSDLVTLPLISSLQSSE
# T1 sequence (looked up) 2: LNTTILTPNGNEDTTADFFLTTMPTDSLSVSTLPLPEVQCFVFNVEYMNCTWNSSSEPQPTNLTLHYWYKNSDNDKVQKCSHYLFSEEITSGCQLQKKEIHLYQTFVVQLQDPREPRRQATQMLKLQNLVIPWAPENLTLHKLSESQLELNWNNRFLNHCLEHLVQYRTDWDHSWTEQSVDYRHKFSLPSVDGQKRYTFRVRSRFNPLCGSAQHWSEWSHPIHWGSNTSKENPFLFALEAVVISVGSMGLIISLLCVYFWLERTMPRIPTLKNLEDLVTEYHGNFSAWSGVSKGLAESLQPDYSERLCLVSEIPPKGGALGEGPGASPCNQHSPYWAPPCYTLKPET
# Assays:
# Test in all cases: cell-based or functional assay
# [1] = biological target: T1, IL10Rα/IL2Rγ receptor
# [2] = biological target: T1, IL10Rα/IL2Rγ receptor; remark: listed apart in the source
# [3] = biological target: T1, IL10Rα/IL2Rγ receptor; remark: listed apart in the source
# [4] = biological target: T1, IL10Rα/IL2Rγ receptor; remark: listed apart in the source
# [5] = biological target: T1, IL10Rα/IL2Rγ receptor; remark: listed apart in the source
# [6] = biological target: T1, IL10Rα/IL2Rγ receptor; remark: listed apart in the source
binder,measurement,setting,value
DR395(DR229-DR239) (bispecific antibody) QVQLQESGGGLVQPGGSLRLSCTASGFSFSSYPMTWARQAPGKGLEWVSTIASDGGSTAYAASVEGRFTISRDNAKSTLYLQLNSLKTEDTAMYYCTKGYGDGTPAPGQGTQVTVSSGGGSQVQLQESGGGSVQAGGSLRLSCTVSGYTYSSNCMGWFRQAPGKEREGVATIYTGGGNTYYADSVKGRFTISQDNAKNTVYLQMNNLKPEDTAMYYCAAEPLSRVYGGSCPTPTFDYWGQGTQVTVSSASHHHHHH,"pSTAT3 MFI, CD4 T cells, 0.0001 nM (unstimulated 1887)",[1],1800 MFI
same,"pSTAT3 MFI, CD4 T cells, 0.001 nM (unstimulated 1887)",[1],1870 MFI
same,"pSTAT3 MFI, CD4 T cells, 0.01 nM (unstimulated 1887)",[1],1890 MFI
same,"pSTAT3 MFI, CD4 T cells, 0.1 nM (unstimulated 1887)",[1],2450 MFI
same,"pSTAT3 MFI, CD4 T cells, 1 nM (unstimulated 1887)",[1],4570 MFI
same,"pSTAT3 MFI, CD4 T cells, 10 nM (unstimulated 1887)",[1],5180 MFI
same,"pSTAT3 MFI, CD4 T cells, 100 nM (unstimulated 1887)",[1],4670 MFI
same,"pSTAT3 MFI, CD8 T cells, 0.0001 nM (unstimulated 1446)",[2],1380 MFI
same,"pSTAT3 MFI, CD8 T cells, 0.001 nM (unstimulated 1446)",[2],1420 MFI
same,"pSTAT3 MFI, CD8 T cells, 0.01 nM (unstimulated 1446)",[2],1400 MFI
same,"pSTAT3 MFI, CD8 T cells, 0.1 nM (unstimulated 1446)",[2],1800 MFI
same,"pSTAT3 MFI, CD8 T cells, 1 nM (unstimulated 1446)",[2],3320 MFI
same,"pSTAT3 MFI, CD8 T cells, 10 nM (unstimulated 1446)",[2],3880 MFI
same,"pSTAT3 MFI, CD8 T cells, 100 nM (unstimulated 1446)",[2],3450 MFI
same,"pSTAT3 MFI, Monocytes, 0.0001 nM (unstimulated 2116)",[3],2060 MFI
same,"pSTAT3 MFI, Monocytes, 0.001 nM (unstimulated 2116)",[3],2060 MFI
same,"pSTAT3 MFI, Monocytes, 0.01 nM (unstimulated 2116)",[3],2020 MFI
same,"pSTAT3 MFI, Monocytes, 0.1 nM (unstimulated 2116)",[3],2020 MFI
same,"pSTAT3 MFI, Monocytes, 1 nM (unstimulated 2116)",[3],2210 MFI
same,"pSTAT3 MFI, Monocytes, 10 nM (unstimulated 2116)",[3],2340 MFI
same,"pSTAT3 MFI, Monocytes, 100 nM (unstimulated 2116)",[3],2440 MFI
same,"pSTAT3 MFI, B cells, 100 nM (unstimulated 1045)",[4],1030 MFI
same,"pSTAT3 MFI, CD4+ T cells, 100 nM (unstimulated 1778)",[4],3570 MFI
same,"pSTAT3 MFI, CD8+ T cells, 100 nM (unstimulated 1288)",[4],2700 MFI
same,"pSTAT3 MFI, Monocytes, 100 nM (unstimulated 1787)",[4],2020 MFI
same,"pSTAT3 MFI, NK cells, 100 nM (unstimulated 1149)",[4],1430 MFI
same,"pSTAT3 MFI, B cells, 0.0001 nM (unstimulated 1193.5)",[5],1130 MFI
same,"pSTAT3 MFI, B cells, 0.001 nM (unstimulated 1193.5)",[5],1130 MFI
same,"pSTAT3 MFI, B cells, 0.01 nM (unstimulated 1193.5)",[5],1140 MFI
same,"pSTAT3 MFI, B cells, 0.1 nM (unstimulated 1193.5)",[5],1150 MFI
same,"pSTAT3 MFI, B cells, 1 nM (unstimulated 1193.5)",[5],1260 MFI
same,"pSTAT3 MFI, B cells, 10 nM (unstimulated 1193.5)",[5],1340 MFI
same,"pSTAT3 MFI, B cells, 100 nM (unstimulated 1193.5)",[5],1360 MFI
same,"pSTAT3 MFI, NK cells, 0.0001 nM (unstimulated 1315)",[6],1260 MFI
same,"pSTAT3 MFI, NK cells, 0.001 nM (unstimulated 1315)",[6],1270 MFI
same,"pSTAT3 MFI, NK cells, 0.01 nM (unstimulated 1315)",[6],1260 MFI
same,"pSTAT3 MFI, NK cells, 0.1 nM (unstimulated 1315)",[6],1310 MFI
same,"pSTAT3 MFI, NK cells, 1 nM (unstimulated 1315)",[6],1640 MFI
same,"pSTAT3 MFI, NK cells, 10 nM (unstimulated 1315)",[6],1800 MFI
same,"pSTAT3 MFI, NK cells, 100 nM (unstimulated 1315)",[6],1760 MFI

# — patent US20250163162A1 (SYNTHEKINE, published 2025)
